The labels stand for the following.
B1: Replication restart protein DnaT (Escherichia coli (strain K12)), P0A8J2 (parent)
chain: MSSRVLTPDVVGIDALVHDHQTVLAKAEGGVVAVFANNAPAFYAVTPARLAELLALEEKLARPGSDVALDDQLYQEPQAAPVAVPMGKFAMYPDWQPDADFIRLAALWGVALREPVTTEELASFIAYWQAEGKVFHHVQWQQKLARSLQIGRASNGGLPKRDVNTVSEPDSQIPPGFRG
partner: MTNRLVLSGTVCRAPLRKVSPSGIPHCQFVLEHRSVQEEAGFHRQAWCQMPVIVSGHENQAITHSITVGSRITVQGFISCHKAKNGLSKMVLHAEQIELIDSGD

In the assay the parent is B1. The conditions noted are these: with prib_ecoli priB.
As for MSSRVLTPDVVGIDALVHDHQTVLAKAEGGVVAVFANNAPAFYAVTPARLAELLALEEKLARPGSDVALADQLYQEPQAAPVAVPMGKFAMYPDWQPDADFIRLAALWGVALREPVTTEELASFIAYWQAEGKVFHHVQWQQKLARSLQIGRASNGGLPKRDVNTVSEPDSQIPPGFRG, the “effect of a mutation on the interaction” value was “disrupting interaction”.

The values are drawn from IntAct's records for PubMed 25265331.
